In US20230265151A1, “GIP/GLP1 CO-AGONIST COMPOUNDS” (priority 2020, published 2023):
Residue numbers refer to the chain shown, from its start. *1 amine or outer side, *2 acyl side, *3 side chain or, on linkers, in order; H or OH if unused. Where no end group is shown, it is not given here. Side-chain parts run from the residue outwards. [ ]: non-standard residue; d: D form. The star is where a group is joined. Decanoyl(10-(4-HOOC-PhO)) = O=C(O)c1ccc(OCCCCCCCCCC(=O)*)cc1; αMePhe(2-F) = C[C@](N)(Cc1ccccc1F)C(=O)O; γGlu = O=C(O)[C@H](CCC(=O)[*:2])N[*:1]; C14 diacid = O=C(O)CCCCCCCCCCCCC(=O)*; αMeY = C[C@](N)(Cc1ccc(O)cc1)C(=O)O; αMeL = CC(C)C[C@](C)(N)C(=O)O; Orn = NCCC[C@H](N)C(=O)O; AEEA = NCCOCCOCC(=O)O; Aib = CC(C)(N)C(=O)O

T1: human GIP receptor (human, UniProt P48546 22-466)
T1 sequence (looked up): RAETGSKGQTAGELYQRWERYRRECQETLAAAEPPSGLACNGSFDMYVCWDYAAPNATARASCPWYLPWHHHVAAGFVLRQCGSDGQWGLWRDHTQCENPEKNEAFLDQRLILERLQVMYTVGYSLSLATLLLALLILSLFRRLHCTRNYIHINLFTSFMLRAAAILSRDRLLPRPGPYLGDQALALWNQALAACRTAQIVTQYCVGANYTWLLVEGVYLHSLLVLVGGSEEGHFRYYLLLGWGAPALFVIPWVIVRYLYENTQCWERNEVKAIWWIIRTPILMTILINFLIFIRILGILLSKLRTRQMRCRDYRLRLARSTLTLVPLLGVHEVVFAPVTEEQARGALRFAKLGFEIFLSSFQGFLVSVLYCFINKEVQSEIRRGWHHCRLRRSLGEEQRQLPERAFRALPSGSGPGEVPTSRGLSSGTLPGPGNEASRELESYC

B1: Example 444 (peptide)
peptide: YXEGTXTSDXXIXLDXQAQXXFIKXLIKGGPSSGAPPPS
modifications: Y-Aib-EGT-αMeF(2F)-TSD-4Pal-Aib-I-αMeL-LD-Orn-QAQ-Aib-4Pal-FIK((2-[2-(2-Amino-ethoxy)-ethoxy]-acetyl)2-(γ-Glu)-CO-(CH2)12-CO2H)-αMeY-LIK((2-[2-(2-Amino-ethoxy)-ethoxy]-acetyl)2-(γ-Glu)-CO-(CH2)12-CO2H)GGPSSGAPPPS-NH2
B2: Example 375 (peptide)
peptide: B1 peptide with X10Y, Q17I, X21E
modifications: Y-Aib-EGT-αMeF(2F)-TSDY-Aib-I-αMeL-LD-Orn-IAQ-Aib-EFIK((2-[2-(2-Amino-ethoxy)-ethoxy]-acetyl)-(γ-Glu)-(10-(4-carboxyphenoxy)decanoyl))-αMeY-LIK((2-[2-(2-Amino-ethoxy)-ethoxy]-acetyl)-(γ-Glu)-(10-(4-carboxyphenoxy)decanoyl))GGPSSGAPPPS-NH2
B3: Example 401 (peptide)
peptide: B1 peptide with X10Y
modifications: Y-Aib-EGT-αMeF(2F)-TSDY-Aib-I-αMeL-LD-Orn-QAQ-Aib-Orn-FIK((2-[2-(2-Amino-ethoxy)-ethoxy]-acetyl)2-(γ-Glu)-CO-(CH2)12-CO2H)-αMeY-LIK((2-[2-(2-Amino-ethoxy)-ethoxy]-acetyl)2-(γ-Glu)-CO-(CH2)12-CO2H)GGPSSGAPPPS-NH2
B4: Example 440 (peptide)
peptide: B1 peptide
modifications: Y-Aib-EGT-αMeF(2F)-TSD-4Pal-Aib-I-αMeL-LD-Orn-QAQ-Aib-Orn-FIK((2-[2-(2-Amino-ethoxy)-ethoxy]-acetyl)2-(γ-Glu)-(10-(4-carboxyphenoxy)decanoyl))-αMeY-LIK((2-[2-(2-Amino-ethoxy)-ethoxy]-acetyl)2-(γ-Glu)-(10-(4-carboxyphenoxy)decanoyl))GGPSSGAPPPS-NH2
B5: Example 412 (peptide)
peptide: B1 peptide with X10Y, X21E
modifications: Y-Aib-EGT-αMeF(2F)-TSDY-Aib-I-αMeL-LD-Orn-QAQ-Aib-EFIK((2-[2-(2-Amino-ethoxy)-ethoxy]-acetyl)2-(γ-Glu)-CO-(CH2)12-CO2H)-αMeY-LIK((2-[2-(2-Amino-ethoxy)-ethoxy]-acetyl)2-(γ-Glu)-CO-(CH2)12-CO2H)GGPSSGAPPPS-NH2
B6: Example 363 (peptide)
peptide: B1 peptide with X10Y, Q17I, X21E
modifications: Y-Aib-EGT-αMeF(2F)-TSDY-Aib-I-αMeL-LD-Orn-IAQ-Aib-EFIK((2-[2-(2-Amino-ethoxy)-ethoxy]-acetyl)2-(γ-Glu)-(2-[2-(2-Amino-ethoxy)-ethoxy]-acetyl)-CO-(CH2)12-CO2H)-αMeY-LIK((2-[2-(2-Amino-ethoxy)-ethoxy]-acetyl)2-(γ-Glu)-(2-[2-(2-Amino-ethoxy)-ethoxy]-acetyl)-CO-(CH2)12-CO2H)GGPSSGAPPPS-NH2
B7: Example 355 (peptide)
peptide: B1 peptide with X10Y, Q17I
modifications: Y-Aib-EGT-αMeF(2F)-TSDY-Aib-I-αMeL-LD-Orn-IAQ-Aib-Orn-FIK((2-[2-(2-Amino-ethoxy)-ethoxy]-acetyl)2-(γ-Glu)-(10-(4-carboxyphenoxy)decanoyl))-αMeY-LIK((2-[2-(2-Amino-ethoxy)-ethoxy]-acetyl)2-(γ-Glu)-(10-(4-carboxyphenoxy)decanoyl))GGPSSGAPPPS-NH2
B8: Example 390 (peptide)
peptide: Y[Aib]EGT[αMePhe(2-F)]TSDV[Aib]I[αMeL]LD[Orn]QAQ[Aib]EFIK([AEEA-AEEA-γGlu-C14 diacid])[αMeY]LIK([AEEA-AEEA-γGlu-C14 diacid])GGPSSGAPPPS-NH2
modifications: N-terminus assumed
SMILES: CC[C@H](C)[C@H](NC(=O)[C@H](CC(C)C)NC(=O)[C@](C)(Cc1ccc(O)cc1)NC(=O)[C@H](CCCCNC(=O)COCCOCCNC(=O)COCCOCCNC(=O)CC[C@H](NC(=O)CCCCCCCCCCCCC(=O)O)C(=O)O)NC(=O)[C@@H](NC(=O)[C@H](Cc1ccccc1)NC(=O)[C@H](CCC(=O)O)NC(=O)C(C)(C)NC(=O)[C@H](CCC(N)=O)NC(=O)[C@H](C)NC(=O)[C@H](CCC(N)=O)NC(=O)[C@H](CCCN)NC(=O)[C@H](CC(=O)O)NC(=O)[C@H](CC(C)C)NC(=O)[C@](C)(CC(C)C)NC(=O)[C@@H](NC(=O)C(C)(C)NC(=O)[C@@H](NC(=O)[C@H](CC(=O)O)NC(=O)[C@H](CO)NC(=O)[C@@H](NC(=O)[C@](C)(Cc1ccccc1F)NC(=O)[C@@H](NC(=O)CNC(=O)[C@H](CCC(=O)O)NC(=O)C(C)(C)NC(=O)[C@@H](N)Cc1ccc(O)cc1)[C@@H](C)O)[C@@H](C)O)C(C)C)[C@@H](C)CC)[C@@H](C)CC)C(=O)N[C@@H](CCCCNC(=O)COCCOCCNC(=O)COCCOCCNC(=O)CC[C@H](NC(=O)CCCCCCCCCCCCC(=O)O)C(=O)O)C(=O)NCC(=O)NCC(=O)N1CCC[C@H]1C(=O)N[C@@H](CO)C(=O)N[C@@H](CO)C(=O)NCC(=O)N[C@@H](C)C(=O)N1CCC[C@H]1C(=O)N1CCC[C@H]1C(=O)N1CCC[C@H]1C(=O)N[C@@H](CO)C(N)=O

biological target: human GLP-1 receptor (human, UniProt P43220 24-463); experiment: cell-based or functional assay

First: B1
Second: B2
The “cAMP EC50 (1.0% HSA)” value of the first is 7.5-fold lower: 7.51 nM for the first, 56.1 nM for the second.

First: B3
Second: B4
The “cAMP EC50 (1.0% HSA)” value of the first is 2-fold higher: 5.39 nM for the first, 2.74 nM for the second.

B5 and B6 are within 1.5-fold of each other in “cAMP EC50 (1.0% HSA)” value: 18.3 nM for the first, 14.3 nM for the second.

First: B7
Second: Y[Aib]EGT[αMePhe(2-F)]TSDV[Aib]I[αMeL]LD[Orn]QAQ[Aib]EFIK([AEEA-AEEA-γGlu-Decanoyl(10-(4-HOOC-PhO))])[αMeY]LIK([AEEA-AEEA-γGlu-Decanoyl(10-(4-HOOC-PhO))])GGPSSGAPPPS-NH2 [Example 446]
The “cAMP EC50 (1.0% HSA)” value of the first is 3-fold lower: 11.3 nM for the first, 33.5 nM for the second.

Going from Y[Aib]EGT[αMePhe(2-F)]TSDV[Aib]I[αMeL]LD[Orn]QAQ[Aib][Orn]FIK([AEEA-AEEA-γGlu-Decanoyl(10-(4-HOOC-PhO))])[αMeY]LIK([AEEA-AEEA-γGlu-Decanoyl(10-(4-HOOC-PhO))])GGPSSGAPPPS-NH2 [Example 447] to B8, the “cAMP EC50 (1.0% HSA)” value rises from 7.85 nM to 24.3 nM (3.1-fold).

For Y[Aib]EGT[αMePhe(2-F)]TSDV[Aib]I[αMeL]LD[Orn]IAQ[Aib][Orn]FIK([AEEA-AEEA-γGlu-Decanoyl(10-(4-HOOC-PhO))])[αMeY]LIK([AEEA-AEEA-γGlu-Decanoyl(10-(4-HOOC-PhO))])GGPSSGAPPPS-NH2 [Example 356], the “cAMP EC50 (1.0% HSA)” value was 23.4 nM.

First: B3
Second: B7
The “cAMP Emax (1.0% HSA)” value of the first is lower: 107% for the first, 109% for the second.

First: Y[Aib]EGT[αMePhe(2-F)]TSDV[Aib]I[αMeL]LD[Orn]QAQ[Aib]EFIK([AEEA-AEEA-γGlu-Decanoyl(10-(4-HOOC-PhO))])[αMeY]LIK([AEEA-AEEA-γGlu-Decanoyl(10-(4-HOOC-PhO))])GGPSSGAPPPS-NH2 [Example 446]
Second: Y[Aib]EGT[αMePhe(2-F)]TSDV[Aib]I[αMeL]LD[Orn]QAQ[Aib][Orn]FIK([AEEA-AEEA-γGlu-Decanoyl(10-(4-HOOC-PhO))])[αMeY]LIK([AEEA-AEEA-γGlu-Decanoyl(10-(4-HOOC-PhO))])GGPSSGAPPPS-NH2 [Example 447]
The “cAMP Emax (1.0% HSA)” value of the first is higher: 105% for the first, 98.4% for the second.

With B8 the “cAMP Emax (1.0% HSA)” value was 94.6%.

biological target: human glucagon receptor (human, UniProt P47871 26-477); experiment: cell-based or functional assay
Sequence (P47871 26-477): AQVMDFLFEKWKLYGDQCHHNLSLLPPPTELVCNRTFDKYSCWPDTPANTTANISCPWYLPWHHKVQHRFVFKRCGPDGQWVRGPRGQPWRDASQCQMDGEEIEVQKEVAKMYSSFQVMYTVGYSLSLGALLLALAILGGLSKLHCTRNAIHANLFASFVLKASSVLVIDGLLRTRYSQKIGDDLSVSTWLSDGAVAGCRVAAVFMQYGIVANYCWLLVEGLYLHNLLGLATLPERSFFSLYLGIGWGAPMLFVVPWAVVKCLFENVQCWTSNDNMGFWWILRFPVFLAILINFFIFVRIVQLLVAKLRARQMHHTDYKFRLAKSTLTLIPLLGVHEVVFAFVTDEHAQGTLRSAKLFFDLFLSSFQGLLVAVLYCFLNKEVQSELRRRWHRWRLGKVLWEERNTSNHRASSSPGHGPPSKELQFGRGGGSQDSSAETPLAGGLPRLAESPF

B1 and B2 cannot be ordered by “cAMP EC50 (1.0% HSA)” value: greater than 9.95 µM for the first, greater than 9.95 µM for the second.

B3 and B4 cannot be ordered by “cAMP EC50 (1.0% HSA)” value: greater than 9.95 µM for the first, greater than 10.1 µM for the second.

B5 and B6 cannot be ordered by “cAMP EC50 (1.0% HSA)” value: greater than 9.95 µM for the first, greater than 9.95 µM for the second.

B7 and Y[Aib]EGT[αMePhe(2-F)]TSDV[Aib]I[αMeL]LD[Orn]QAQ[Aib]EFIK([AEEA-AEEA-γGlu-Decanoyl(10-(4-HOOC-PhO))])[αMeY]LIK([AEEA-AEEA-γGlu-Decanoyl(10-(4-HOOC-PhO))])GGPSSGAPPPS-NH2 [Example 446] cannot be ordered by “cAMP EC50 (1.0% HSA)” value: greater than 9.95 µM for the first, greater than 9.95 µM for the second.

Y[Aib]EGT[αMePhe(2-F)]TSDV[Aib]I[αMeL]LD[Orn]QAQ[Aib][Orn]FIK([AEEA-AEEA-γGlu-Decanoyl(10-(4-HOOC-PhO))])[αMeY]LIK([AEEA-AEEA-γGlu-Decanoyl(10-(4-HOOC-PhO))])GGPSSGAPPPS-NH2 [Example 447] and B8 cannot be ordered by “cAMP EC50 (1.0% HSA)” value: greater than 9.95 µM for the first, greater than 9.95 µM for the second.

With Y[Aib]EGT[αMePhe(2-F)]TSDV[Aib]I[αMeL]LD[Orn]IAQ[Aib][Orn]FIK([AEEA-AEEA-γGlu-Decanoyl(10-(4-HOOC-PhO))])[αMeY]LIK([AEEA-AEEA-γGlu-Decanoyl(10-(4-HOOC-PhO))])GGPSSGAPPPS-NH2 [Example 356] the “cAMP EC50 (1.0% HSA)” value was greater than 9.95 µM.

biological target: T1, human GIP receptor; experiment: cell-based or functional assay

Going from B1 to B2, the “cAMP EC50 (1.0% HSA)” value rises from 0.57 nM to 4.68 nM (8.2-fold).

Compared with B3, B4 is 2.1-fold lower in “cAMP EC50 (1.0% HSA)” value: 0.434 nM for the first, 0.209 nM for the second.

Going from B5 to B6, the “cAMP EC50 (1.0% HSA)” value falls from 1.57 nM to 0.976 nM (1.6-fold).

Going from B7 to Y[Aib]EGT[αMePhe(2-F)]TSDV[Aib]I[αMeL]LD[Orn]QAQ[Aib]EFIK([AEEA-AEEA-γGlu-Decanoyl(10-(4-HOOC-PhO))])[αMeY]LIK([AEEA-AEEA-γGlu-Decanoyl(10-(4-HOOC-PhO))])GGPSSGAPPPS-NH2 [Example 446], the “cAMP EC50 (1.0% HSA)” value rises from 1.81 nM to 5.14 nM (2.8-fold).

Going from Y[Aib]EGT[αMePhe(2-F)]TSDV[Aib]I[αMeL]LD[Orn]QAQ[Aib][Orn]FIK([AEEA-AEEA-γGlu-Decanoyl(10-(4-HOOC-PhO))])[αMeY]LIK([AEEA-AEEA-γGlu-Decanoyl(10-(4-HOOC-PhO))])GGPSSGAPPPS-NH2 [Example 447] to B8, the “cAMP EC50 (1.0% HSA)” value rises from 1.46 nM to 3.85 nM (2.6-fold).

In the case of Y[Aib]EGT[αMePhe(2-F)]TSDV[Aib]I[αMeL]LD[Orn]IAQ[Aib][Orn]FIK([AEEA-AEEA-γGlu-Decanoyl(10-(4-HOOC-PhO))])[αMeY]LIK([AEEA-AEEA-γGlu-Decanoyl(10-(4-HOOC-PhO))])GGPSSGAPPPS-NH2 [Example 356], the “cAMP EC50 (1.0% HSA)” value is reported as 2.47 nM.

Compared with B3, B5 is higher in “cAMP Emax (1.0% HSA)” value: 83% for the first, 87.5% for the second.

Compared with Y[Aib]EGT[αMePhe(2-F)]TSDV[Aib]I[αMeL]LD[Orn]QAQ[Aib]EFIK([AEEA-AEEA-γGlu-Decanoyl(10-(4-HOOC-PhO))])[αMeY]LIK([AEEA-AEEA-γGlu-Decanoyl(10-(4-HOOC-PhO))])GGPSSGAPPPS-NH2 [Example 446], B8 is lower in “cAMP Emax (1.0% HSA)” value: 97% for the first, 89.3% for the second.

In the case of Y[Aib]EGT[αMePhe(2-F)]TSDV[Aib]I[αMeL]LD[Orn]IAQ[Aib][Orn]FIK([AEEA-AEEA-γGlu-Decanoyl(10-(4-HOOC-PhO))])[αMeY]LIK([AEEA-AEEA-γGlu-Decanoyl(10-(4-HOOC-PhO))])GGPSSGAPPPS-NH2 [Example 356], the “cAMP Emax (1.0% HSA)” value is reported as 82.7%.
